In the RNAGym collection of RNA variant scans (doi:10.7554/elife.80360):

B1: HDV Ribozyme (parent)
chain: GGCCGGCAUGGUCCCAGCCUCCUCGCUGGCGCCGGCUGGGCAACAUUCCGAGGGGACCGUCCCCUCGGUAAUGGCGAAUGGGACCCA

Variants of: B1
Experiment: self-cleavage, relative activity (ratio to wild type); higher = more cleavage; co-transcriptional
Variant A8G G82U has a self-cleavage of 0.369.
Variant A8C C48G has a self-cleavage of 0.175.
Variant A8C C48U has a self-cleavage of 0.776.
Variant A8G G28C has a self-cleavage of 0.
Work on A8G G28A yielded a self-cleavage of 0.166.
C7G G76C showed a self-cleavage of 0.151.
Variant C7G U79A has a self-cleavage of 0.123.
For C7A U9G, the self-cleavage was 0.396.
With C7A G81C the self-cleavage was 0.0536.
Work on A8C C21U yielded a self-cleavage of 0.0594.
Work on A8U C63U yielded a self-cleavage of 0.862.
With A8U C63G the self-cleavage was 0.646.
With C7A G39U the self-cleavage was 0.18.
For C7A G39A, the self-cleavage was 0.0739.
Variant C7A C63U has a self-cleavage of 0.652.
In the case of A8U A83G, the self-cleavage is reported as 0.746.
A8U A83C gave a self-cleavage of 0.
Variant A8C C30U has a self-cleavage of 0.415.
With A8C C30A the self-cleavage was 0.0462.
For C7G G82C, the self-cleavage was 0.
For A8G C49A, the self-cleavage was 0.939.
With C7U C36A the self-cleavage was 0.0405.
C7U C36G gave a self-cleavage of 0.104.
A8G A16U gave a self-cleavage of 0.895.
Work on A8G A16C yielded a self-cleavage of 0.639.
Variant A8U C62U has a self-cleavage of 0.989.
With A8U C62A the self-cleavage was 0.956.
A8U C62G showed a self-cleavage of 0.287.
C7A C64G showed a self-cleavage of 0.429.
C7A C64U showed a self-cleavage of 0.491.
Variant C7G A70G has a self-cleavage of 0.256.
C7G A70C showed a self-cleavage of 0.237.
Variant A8U C22A has a self-cleavage of 0.0923.
Variant A8C A42C has a self-cleavage of 0.201.
For A8C A42U, the self-cleavage was 0.133.
C7G C22U showed a self-cleavage of 0.0898.
C7G C22G gave a self-cleavage of 0.0791.
C7U G81C showed a self-cleavage of 0.383.
A8G G80C gave a self-cleavage of 0.172.
Variant C7A C41U has a self-cleavage of 0.489.
With C7U C49U the self-cleavage was 0.727.
A8C U37C showed a self-cleavage of 0.997.
Work on A8C U37A yielded a self-cleavage of 0.128.
In the case of C7U U23G, the self-cleavage is reported as 0.332.
For A8C G28C, the self-cleavage was 0.
With C7G U69A the self-cleavage was 0.237.
C7G C61G gave a self-cleavage of 0.287.
Variant C7G C61A has a self-cleavage of 0.486.
With C7U C48G the self-cleavage was 0.831.
C7A G10U gave a self-cleavage of 0.0723.
For C7A G10C, the self-cleavage was 0.201.
With A8G C75A the self-cleavage was 0.0692.
A8G U12G gave a self-cleavage of 0.712.
C7U G59U showed a self-cleavage of 0.812.
For A8U C57G, the self-cleavage was 1.07.
With A8U C57A the self-cleavage was 1.05.
C7A G74A showed a self-cleavage of 0.026.
Work on C7A G74U yielded a self-cleavage of 0.201.
Variant C7U C19A has a self-cleavage of 0.157.
In the case of A8U A51U, the self-cleavage is reported as 0.787.
In the case of A8U A51G, the self-cleavage is reported as 0.767.
For A8C G50A, the self-cleavage was 0.96.
In the case of C7U U69A, the self-cleavage is reported as 0.718.
Work on C7A C49G yielded a self-cleavage of 0.291.
With C7G G38U the self-cleavage was 0.0692.
For C7G G38A, the self-cleavage was 0.101.
A8G C84A gave a self-cleavage of 0.598.
In the case of C7U A83U, the self-cleavage is reported as 0.0852.
Work on A8U C86G yielded a self-cleavage of 0.554.
A8U C86U gave a self-cleavage of 0.997.
In the case of A8U C13G, the self-cleavage is reported as 0.
For A8U C13A, the self-cleavage was 0.
In the case of C7A U46G, the self-cleavage is reported as 0.0755.
Work on C7A U46A yielded a self-cleavage of 0.287.
Work on C7G U9C yielded a self-cleavage of 0.
C7A G40U showed a self-cleavage of 0.295.
With C7A G40A the self-cleavage was 0.646.
For C7G U20A, the self-cleavage was 0.
C7G G80A gave a self-cleavage of 0.145.
For C7U G35C, the self-cleavage was 0.
A8G C13U gave a self-cleavage of 0.
Work on A8G C13G yielded a self-cleavage of 0.0923.
In the case of A8G U37A, the self-cleavage is reported as 0.147.
In the case of A8C C26U, the self-cleavage is reported as 1.01.
Work on C7G A42G yielded a self-cleavage of 0.111.
Variant C7G A42U has a self-cleavage of 0.0665.
In the case of C7G U47C, the self-cleavage is reported as 0.293.
C7A C61G showed a self-cleavage of 0.806.
Work on C7A C61A yielded a self-cleavage of 0.692.
Work on C7G A77G yielded a self-cleavage of 0.0755.
With C7G A77U the self-cleavage was 0.0875.
For A8C U23C, the self-cleavage was 0.506.
For C7U U65C, the self-cleavage was 0.914.
Work on A8C A87U yielded a self-cleavage of 0.847.
A8C A87G showed a self-cleavage of 0.674.
C7U A70G gave a self-cleavage of 0.831.
In the case of C7U A70C, the self-cleavage is reported as 0.923.
Work on C7A G76A yielded a self-cleavage of 0.868.
A8C C57G gave a self-cleavage of 0.87.
Work on C7A G28C yielded a self-cleavage of 0.0615.
With A8G C63U the self-cleavage was 1.26.
A8C C36U showed a self-cleavage of 0.712.
C7U C58U gave a self-cleavage of 1.19.
Work on C7U A42G yielded a self-cleavage of 0.415.
A8U C21A showed a self-cleavage of 0.
In the case of C7G U46C, the self-cleavage is reported as 0.
In the case of A8G A56C, the self-cleavage is reported as 0.867.
For A8C G55A, the self-cleavage was 0.636.
Variant A8C C61A has a self-cleavage of 0.931.
With A8C G80C the self-cleavage was 0.133.
C7G C48G showed a self-cleavage of 0.
Work on A8C U12A yielded a self-cleavage of 0.
C7U G39C gave a self-cleavage of 0.0923.
Variant C7U C30U has a self-cleavage of 0.483.
C7U G25C showed a self-cleavage of 0.0378.
With C7U C75A the self-cleavage was 0.177.
C7U C75G showed a self-cleavage of 0.0852.
In the case of A8G G73U, the self-cleavage is reported as 0.148.
Variant C7U G67A has a self-cleavage of 0.904.
C7U G67U gave a self-cleavage of 0.684.
C7U C85A showed a self-cleavage of 0.665.
Variant C7A G54C has a self-cleavage of 0.8.
With A8U C15U the self-cleavage was 0.935.
Work on C7U C13A yielded a self-cleavage of 0.124.
With C7G G68A the self-cleavage was 0.0594.
In the case of A8C G17U, the self-cleavage is reported as 0.287.
With A8C U47C the self-cleavage was 0.665.
Work on C7U U27G yielded a self-cleavage of 0.431.
Work on C7G G25A yielded a self-cleavage of 0.104.
C7A U37C showed a self-cleavage of 0.719.
C7A U37A showed a self-cleavage of 0.229.
Variant A8C A71G has a self-cleavage of 0.772.
Variant C7A U69A has a self-cleavage of 0.449.
Variant C7U C24U has a self-cleavage of 0.261.
With A8G U9G the self-cleavage was 0.831.
For A8G U20A, the self-cleavage was 0.151.
In the case of A8G U20G, the self-cleavage is reported as 0.151.
For A8C A43U, the self-cleavage was 0.289.
In the case of C7A G53A, the self-cleavage is reported as 0.642.
With C7A G53U the self-cleavage was 0.544.
In the case of A8G U27G, the self-cleavage is reported as 0.831.
In the case of A8C C22A, the self-cleavage is reported as 0.249.
Variant A8G C36U has a self-cleavage of 0.727.
Work on C7A C84G yielded a self-cleavage of 0.128.
For C7G U23C, the self-cleavage was 0.
A8G G10A gave a self-cleavage of 0.369.
In the case of C7A G68U, the self-cleavage is reported as 0.623.
C7G A71G gave a self-cleavage of 0.151.
C7G U65C showed a self-cleavage of 0.0831.
C7G U65G gave a self-cleavage of 0.199.
C7G C18U showed a self-cleavage of 0.0639.
For A8G G52C, the self-cleavage was 1.26.
Variant A8G G52A has a self-cleavage of 0.719.
C7G C36A gave a self-cleavage of 0.111.
Work on C7G C36G yielded a self-cleavage of 0.0723.
In the case of C7G C36U, the self-cleavage is reported as 0.0504.
In the case of A8G C41U, the self-cleavage is reported as 0.917.
A8G G68A gave a self-cleavage of 1.03.
In the case of A8U G10C, the self-cleavage is reported as 0.639.
For A8C C19A, the self-cleavage was 0.0449.
For A8C C18A, the self-cleavage was 0.0415.
With C7G G81U the self-cleavage was 0.0594.
A8U C14G showed a self-cleavage of 0.237.
C7U G55A showed a self-cleavage of 0.724.
C7U G55C gave a self-cleavage of 0.736.
With C7U G34C the self-cleavage was 0.193.
With A8C A78C the self-cleavage was 0.302.
